Assay: soluble on expression in E. coli; label from the status in PepcDB or PDB records

Sequence	soluble on expression in E. coli
MGHHHHHHSHMANSAGSMANSAGSMPSSPLRVAVVCSSNQNRSMEAHNILSKRGFSVRSFGTGTHVKLPGPAPDKPNVYDFKTTYDQMYNDLLRKDKELYTQNGILHMLDRNKRIKPRPERFQNCKDLFDLILTCEERVYDQVVEDLNSREQETCQPVHVVNVDIQDNHEEATLGAFLICELCQCIQHTEDMENEIDELLQEFEEKSGRTFLHTVCFY	soluble
MVRTITVASGKGGTGKTTITANLGVALAQLGHDVTIVDADITMANLELILGMEGLPVTLQNVLAGEARIDEAIYVGPGGVKVVPAGVSLEGLRKANPEKLEDVLTQIMESTDILLLDAPAGLERSAVIAIAAAQELLLVVNPEISSITDGLKTKIVAERLGTKVLGVVVNRITTLGIEMAKNEIEAILEAKVIGLIPEDPEVRRAAAYGKPVVLRSPNSPAARAIVELANYIAGGAKKKVPAEVKEKKKEGALAKMLRIFRRR	soluble
MGSDKIHHHHHHMSFFNKIILIGRLVRDPEERYTLSGTPVTTFTIAVDRVPRKNAPDDAQTTDFFRIVTFGRLAEFARTYLTKGRLVLVEGEMRMRRWETPTGEKRVSPEVVANVVRFMDRKPAETVSETEEELEIPEEDFSSDTFSEDEPPF	soluble
MAAPSAGSWSTFQHKELMAADRGRRILGVCGMHPHHQETLKKNRVVLAKQLLLSELLEHLLEKDIITLEMRELIQAKVGSFSQNVELLNLLPKRGPQAFDAFCEALRETKQGHLEDMLLTTLSGLQHVLPPLSCDYDLSLPFPVCESCPLYKKLRLSTDTVEHSLDNKDGPVCLQVKPCTPEFYQTHFQLAYRLQSRPRGLALVLSNVHFTGEKELEFRSGGDVDHSTLVTLFKLLGYDVHVLCDQTAQEMQEKLQNFAQLPAHRVTDSCIVALLSHGVEGAIYGVDGKLLQLQEVFQLFDNANCPSLQNKPKMFFIQACRGDETDRGVDQQDGKNHAGSPGCEESDAGKEKLPKMRLPTRSDMICGYACLKGTAAMRNTKRGSWYIEALAQVFSERACDMHVADMLVKVNALIKDREGYAPGTEFHRCKEMSEYCSTLCRHLYLFPGHPPT	not soluble
MGHHHHHHGGHMSLKVFIDPDGDIEEIKEAFRLINPELYERLLKIDGSDEFFRYMVKPLRVSVRVNTLKAEVDEVVENLKELITGRVPWCEEGFYLSIDEFSRIPEHQLGLIFSQEAASMIPPLVMELEPKMTVLDIAASPGAKTTQIAQYLQNEGCIVANDVKHSRINILISNLQRCGVLIAKVTVKDGRYFGRFRNRFDAVLVDAPCSNMGMIRKNYRNIRLWKMRDCYGLSKLQKSLLMAAYKAVKPGGVVVYSTCTLEPIENEEVVDYILRNTDAEIEEVNLPVKGVEPFTKFDGKEYSEEVRKCLRLHPQSSDTEGFFVAKLRKPEGGS	soluble
MGSDKIHHHHHHMMIDTPAVLIDRERLTANISRMAAHAGAHEIALRPHVKTHKIIEIAQMQVDAGARGITCATIGEAEIFAGAGFTDIFIAYPLYLTDHAVQRLNAIPGEISIGVDSVEMAQATAGLREDIKALIEVDSGHRRSGVTATASELSQIREALGSRYAGVFTFPGHSYGPGNGEQAAADELQALNNSVQRLAGGLTSGGSSPSAQFTDAIDEMRPGVYVFNDSQQITSGACTEKQVAMTVLSTVVSRNVSDRRIILDAGSKILSTDKPAWIDGNGFVLGNPEARISALSEHHATIFWPDKVLLPVIGEQLNIVPNHACNVINLVDEVYVREADGTFRTWKVVARGRNN	not soluble
MSLATTSTEPPTELSGEITMWHSFTQGPRLESIQKSADAFMQKHPKTKIKIETFSWNDFYTKWTTGLANGNVPDISTALPNQVMEMVNSDALVPLNDSIKRIGQDKFNETALNEAKIGDDYYSVPLYSHAQVMWVRTDLLKEHNIEVPKTWDQLYEASKKLKEAGVYGLSVPFGTNDLMATRFLNFYVRSGGGSLLTKDLKADLTSQLAQDGIKYWVKLYKEISPQDSLNFNVLQQATLFYQGKTAFDFNSGFHIGGINANSPQLIDSIDAYPIPKIKESDKDQGIETSNIPMVVWKNSKHPEVAKAFLEALYNEEDYVKFLDSTPVGMLPTIKGISDSAAYKENETRKKFKHAEEVITEAVKKGTAIGYENGPSVQAGMLTNQHIIEQMFQDIITNGTDPMKAAKEAEKQLNDLFEAVQEGHHHHHH	soluble
MSRLGYVMTKASAKNFKVYINGSARGYRNIIINGAKSWNPSPYLNTVTMGNDVKPNFTVSSSNTNKGSVLAVCNTTYYKSNKLIVKNEITLYKGFRSLSNNHKIETVAHEFGHGFGLGHVKTRNAIMLDKGFINKTKPQKLEHHHHHH	not soluble
MTSRKAKESAHMSASDIISTFNDFFTNFPANKSFDMTYKVYLKDLADADEELTSSRRNSELNLTENKPITIASCGFVPQMMSSSTVKNLSLSSSATNFNSEKSEIGSKITMNPAKQVLKGRNTRKKRSMVDLSQINKIFGRDYNPPAPSSKSPPTIYVNLGVIYSSSSSHASDASSISSHTSVSSTFTEKQHEFGKLVPSGTDGSLELFVKVADCFD	not soluble
QAMFERFTDRARRVIVLAQEEARMLNHNYIGTEHILLGLIHEGEGVAAKALESMGISLDAVRQEVEEIIGQGSQPTTGHIPFTPRAKKVLELSLREGLQMGHKYIGTEFLLLGLIREGEGVAAQVLVKLGADLPRVRQQVIQLLSG	soluble
MCDSHQKEEDNANTSERALFFNYHEFSYSFYEDLGSEDAKPTEHDEDHKLCITHFPNVYAARGSAEFQVTRVVRVPRRFDESRSSLETPQFSTQLPGSEPAAIVGDDGTSFVRCGRYDIGDHVFGCSSVSPLSEYLSAAELAEVVHRVNGFLLREEGEVFGWRNLSGLLLDMLTGGLWSWVLGPLLSRPVFQESLALEQYVAQLNSPGGLLHERGVRLVLPRRSGCLSLDFVVPRPK	not soluble
MSLDRVDRDILRILHAKGRLPVVELAKLVNLTTSPCSERVKRLEKEGYIRGYHADLDPGKLGLDVQVFIHIRLDQSSFSIFERFAHAVADIPEIEACYSLSGDFDTMIKVRVKDMKAYQAFMSGKLGSLPGVIQTRSEFVIEEHKTSFGINPELIYSLPS	not soluble
MGHHHHHHSHMRENNLHTVCEEAKCPNIHECWAVRRTATFMILGSVCTRACRFCAVKTGLPTELDLQEPERVADSVALMNLKHAVITAVARDDQKDGGAGIFAETVRAIRRKSPFTTIEVLPSDMGGNYDNLKTLMDTRPDILNHNIETVRRLTPRVRARATYDRSLEFLRRAKEMQPDIPTKSSIMIGLGETKEEIIEVMDDLLANNVDIMAIGQYLQPTKKHLKVQKYYHPDEFAELKEIAMQKGFSHCEAGPLVRSSYHADEQVNEASKKRQAQA	soluble
MSIKFELIDVPIPQGTNVIIGQAHFIKTVEDLYEALVTSVPGVKFGIAFCEASGKRLVRHEANDEELRNLAIDLCKKIAAGHVFVIYIRNAWPINVLNAIKNVPEVVRIFAATANPLKVIVAEVEPERRGVVGVVDGHSPLGVETEKDREERKKFLREVVKYKL	soluble
MGSDKIHHHHHHMSNCFNPANILLPKDGIDMEKWSVIACDQYTSQADYWKTVEEFVGDAPSTLNVVFPEIYLGNKKNDKNCACENGSCADDHTTMYASMSDSERIACINSTMEKYLSDGIIQQVVTDGYVLVERTTESGVRLGIVGLVDLDDYDFDPKNPTLIRATEGTVISRIPPRVKIREHAAIELPHVMLLVDDPVDKADDASDEGKLTDIYNIGNIEHGIIEYVYSLKDSFRKLYDTDLMQGGGHIRGYAIEGEAAKQVTAAFAKKQEQSGGFLFAVGDGNHSLATAKTCWENIRKSQKFTDEQLKTHPARYALVEICNLHSKALEFKPIHRLLTKVNVEDMLAFFNEQLKEQGLECAEGNEIIFEYVESSDSIDENASGYEARVCTYAINIINRGDRLPVEILQGILDKYIKSHEDTEIDYIHGDDALHRLVKETNGCGIFLQSIDKSTLFPAINAGGVLPRKTFSIGEANEKRYYMECHNIQVK	not soluble
MWAFPERFEGRHVRLEPLALAHLPAFLRHYDPEVYRFLSRAPVAPTEEALRAHLEGLLGEPGRVNWAILFGKEVAGRISVIAPEPEHAKLELGTMLFKPFWGSPANKEAKYLLLRHAFEVLRAERVQFKVDLRNERSQRALEALGAVREGVLRKNRRLPDGAFRDDVVYSVLKEEWPGVKARLEARLYGASGNP	soluble
MKERVIITGANGQLGKQLQEELNPEEYDIYPFDKKLLDITNISQVQQVVQEIRPHIIIHCAAYTKVDQAEKERDLAYVINAIGARNVAVASQLVGAKLVYISTDYVFQGDRPEGYDEFHNPAPINIYGASKYAGEQFVKELHNKYFIVRTSWLYGKYGNNFVKTMIRLGKEREEISVVADQIGSPTYVADLNVMINKLIHTSLYGTYHVSNTGSCSWFEFAKKIFSYANMKVNVLPVSTEEFGAAAARPKYSIFQHNMLRLNGFLQMPSWEEGLERFFIETKSH	not soluble
MSSLADLINLDLSDSTDQIIAEYIWIGGSGLDMRSKARTLPGPVTDPSQLPKWNYDGSSTGQAPGDDSEVIIYPQAIFKDPFRRGNNILVMCDAYTPAGEPIPTNKRHAAAKIFEDPSVVAEETWYGIEQEYTLLQKDIKWPVGWPVGGFPGPQGPYYCGVGADKAFGRDIVDSHYKACLYAGINVSGTNGEVMPGQWEFQVGPTVGIAAADQVWVARYILERITELAGVVLSLDPKPIPGDWNGAGAHTNYSTKSMREDGGYEVIKKAIEKLGLRHKEHIAAYGEGNERRLTGKHETADINTFLWGVANRGASIRVGRDTEQAGKGYFEDRRPASNMDPYTVTSMIAESTILWKP	soluble
MSLNGEGAVPTLVGYGADTAIETSRRTSRPLAAPVVRKLAKELAVDLAALQRGSGAGGVITRADVLAAARGGVGAGPDVRPVHGVHARMAEKMTLSHKEIPTAKASVEVICAELLRLRDRFVSAAPEITPFALTLRLLVIALKHNVILNSTWVDSGEGPQVHVHRGVHLGFGAATERGLLVPVVTDAQDKNTRELASRVAELITGAREGTLTPAELRGSTFTVSNFGALGVDDGVPVINHPEAAILGLGAIKPRPVVVGGEVVARPTMTLTCVFDHRVVDGAQVAQFMCELRDLIESPETALLDLEGHHHHHH	soluble
MTSSSTPRHRGIFPVVPTTFADTGDLDLASQKRAVDFMIDAGSDGLCILANFSEQFAITDDERDVLTRTILEHVAGRVPVIVTTSHYSTQVCAARSLRAQQLGAAMVMAMPPYHGATFRVPEAQIFEFYARVSDAIAIPIMVQDAPASGTALSAPFLARMAREIEQVAYFKIETPGAANKLRELIRLGGDAIEGPWDGEEAITLLADLHAGATGAMTGGGFPDGIRPILEAWREGRHDDAYARYQAWLPLINHENRQSGILTAKALMREGGVIASERPRHPMPELHPDTRAELLAIARRLDPLVLRWAH	soluble
MKMEVPQVDLPLEVLAWTKVTEDILNIYKQSCRLQACIFAICTEGTMKVSINLLEYEVHPNDLITLLPGTIIQFREKAEKVSLCFAGFSAKCIGHINLLTTIGNAYPKLIEQPIIPLSENIADYLKEYFALLSHASCDESFKMDSKLADLSLQTILTSIQLMYRNYSGNNHSNRKKEICRKLIQLITEHYKDQRCAQFYADQLGISLQHLSTTVKQVTGKSVLDTIAYIVIIDAKAQLKGTDMTIQEIAYSLNFPNPSFFCKFFRRHVGMSPLEFRNS	not soluble
